This passage reports binding result, IC50 and Kd results from patent US7122624 (dated 2006).

No end group written: not given here.

The target of one experiment is glucagon receptor (human, UniProt P47871). The experiment in a line: competition, COS-7 cells, up to 1 uM.
The next experiment concerns the target T1, PTH2 receptor (human).
T1 chain: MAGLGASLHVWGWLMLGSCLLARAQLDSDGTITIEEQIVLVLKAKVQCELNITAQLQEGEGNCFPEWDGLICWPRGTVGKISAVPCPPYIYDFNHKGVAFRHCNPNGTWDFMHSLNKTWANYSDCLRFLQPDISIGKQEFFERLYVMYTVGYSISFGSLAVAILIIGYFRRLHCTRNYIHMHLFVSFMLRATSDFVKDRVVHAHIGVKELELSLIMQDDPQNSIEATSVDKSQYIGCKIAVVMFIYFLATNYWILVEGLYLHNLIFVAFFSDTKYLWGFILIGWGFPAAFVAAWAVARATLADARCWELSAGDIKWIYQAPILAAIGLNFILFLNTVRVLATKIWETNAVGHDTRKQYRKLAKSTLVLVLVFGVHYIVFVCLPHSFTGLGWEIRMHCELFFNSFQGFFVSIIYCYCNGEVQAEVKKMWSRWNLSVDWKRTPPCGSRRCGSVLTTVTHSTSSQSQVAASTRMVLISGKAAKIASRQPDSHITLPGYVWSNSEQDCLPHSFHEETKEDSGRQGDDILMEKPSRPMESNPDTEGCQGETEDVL
The experiment in a line: competition, [125I]TIP39, 10 uM GTPgS, HEK293 membranes.

The target of experiment [1] is T2, PTH1 receptor (human, UniProt Q03431).
T2 chain: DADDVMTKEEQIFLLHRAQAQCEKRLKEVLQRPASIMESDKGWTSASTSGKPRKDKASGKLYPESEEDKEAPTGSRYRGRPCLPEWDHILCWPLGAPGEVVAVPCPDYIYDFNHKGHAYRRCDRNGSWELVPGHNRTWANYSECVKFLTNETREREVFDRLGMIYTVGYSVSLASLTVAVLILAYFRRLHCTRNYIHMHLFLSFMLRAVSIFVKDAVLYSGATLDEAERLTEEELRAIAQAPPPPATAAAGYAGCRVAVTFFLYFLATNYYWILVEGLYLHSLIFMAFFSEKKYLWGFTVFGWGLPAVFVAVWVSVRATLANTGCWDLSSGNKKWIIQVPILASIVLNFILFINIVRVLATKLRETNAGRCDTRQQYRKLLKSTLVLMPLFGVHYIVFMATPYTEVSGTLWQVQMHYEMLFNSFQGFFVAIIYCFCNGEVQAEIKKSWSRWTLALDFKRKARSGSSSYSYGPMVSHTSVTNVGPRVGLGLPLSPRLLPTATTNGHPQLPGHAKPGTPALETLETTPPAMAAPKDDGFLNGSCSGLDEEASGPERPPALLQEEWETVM
The experiment in a line: competition, [125I]rPTH(1-34), 10 uM GTPgS, HEK293 membranes.

Experiment [2] addresses T2, PTH1 receptor. The experiment in a line: other, radioligand kinetics, HEK293 membranes, 21C.
The target in experiment [3] is T2, PTH1 receptor. The experiment in a line: other, radioligand saturation, HEK293 membranes, 21C.

glucagon receptor, sequence (P47871 26-477): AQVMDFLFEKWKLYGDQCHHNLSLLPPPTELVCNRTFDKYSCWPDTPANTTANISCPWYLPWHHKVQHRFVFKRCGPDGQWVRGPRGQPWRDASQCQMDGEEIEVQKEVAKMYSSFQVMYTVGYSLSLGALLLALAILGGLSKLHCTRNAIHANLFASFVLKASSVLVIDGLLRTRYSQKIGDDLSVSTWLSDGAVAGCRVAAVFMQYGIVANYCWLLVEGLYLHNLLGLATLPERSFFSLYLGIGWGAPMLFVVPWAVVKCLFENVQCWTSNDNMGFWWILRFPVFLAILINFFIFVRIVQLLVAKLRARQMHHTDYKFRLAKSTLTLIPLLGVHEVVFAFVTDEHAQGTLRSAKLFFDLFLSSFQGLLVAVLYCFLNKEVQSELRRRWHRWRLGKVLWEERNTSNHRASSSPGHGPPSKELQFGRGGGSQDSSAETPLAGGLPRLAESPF

Take SLALADDAAFRERARLLAALERRHWLNSYMHKLLVLDAP [TIP39]: the binding result with glucagon receptor is “no binding”.
Take DAAFRERARLLAALERRHWLNSYMHKLLVLDAP [TIP(7-39)]: the IC50 (as a rule, the concentration needed to halve the response being measured) amounted to 98 nM with PTH2 receptor and 5 nM with PTH1 receptor [1].
With DAAFRERARLLAALERRHWLNSYMHKLLVLDAP (also: 125I label, site not given here) [[125I]TIP(7-39)], the Kd (in general, a measure of binding affinity in units of concentration) with PTH1 receptor [2] stood at 0.57 nM; in the experiment with PTH1 receptor [3] it was 1.3 nM.
